Test results reported in publication PMC3236198.

Target: ΔC SSB (Escherichia coli, UniProt P0AGE0)
Experiment: EMSA; additional complexes at higher SSB:DNA ratios; EMSA: 20 mM Tris-HCl pH 8.0, 50 mM NaCl, 5% glycerol, 50 µg/ml BSA, 4 °C, 30 min, 1 pmol DNA with 0.2, 2 or 10 pmol SSB in 15 µl; fluorescence: Buffer A (composition not given in the material) with ~50 or ~200 mM NaCl
Settings: protein: recombinant; chain copies: 4; label: 5'-32P

Sequence of ΔC SSB (P0AGE0 1-113, tags or fused parts left off): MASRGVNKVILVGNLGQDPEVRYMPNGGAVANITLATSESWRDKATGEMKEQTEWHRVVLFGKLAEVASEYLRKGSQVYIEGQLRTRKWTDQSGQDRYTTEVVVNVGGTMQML

B1: 79mer ssDNA (ssDNA)
DNA: GCACTAGTGCGGATAGCCCCGTGTTGTTGTCTGACCCCCGACCCCGACGGCAATGCGGGGCAATCCCCTGGAGGCCTGC
  binding result: binds
